From publication PMC7797213, “Vascular effects of serelaxin in patients with stable coronary artery disease: a randomized placebo-controlled trial” (Cardiovascular Research, 2020)

Tests used:
Assay type in all cases: in vivo, human
NT-proBNP = test: Plasma biomarker NT-proBNP; conditions: for NT-proBNP, geo-mean (95% CI): plasma
Experimental: (§1) Biomarkers reported include: N-terminal pro-brain natriuretic peptide (NT-proBNP), high-sensitivity troponin T (hsTnT) measured to assess myocardial safety; cystatin C measured to access renal function; the biologically active form of endothelin-1 (1–21), measured to assess vascular function. Venous blood samples were collected at 0 (pre-dose), 24, 48, and 54 h, Day 30, and Day 180. NT-proBNP, hsTnT, and cystatin C samples were collected in EDTA tubes while endothelin-1 samples were collected in EDTA tubes containing aprotinin. Plasma was immediately frozen at −70°C pending analysis in complete patient sets. Commercial biomarker kits were as follows: hsTnT from Roche Diagnostics GmbH, Germany; cystatin C from Gentian, Moss, Norway; and active endothelin-1 […] from Biomedica Medizinprodukte, Vienna, Austria.
(§2) For the biomarker analyses, baseline was defined as the pre-dose assessment on Day 1. Raw values as well as changes from baseline were summarized by treatment and time. Descriptive statistics included geometric mean and 95% CI. For geometric means of change from baseline, a ratio to baseline was used to determine percentage change by first calculating in the log domain and then back transforming using exponentiation.
(§3) Baseline corresponds to the value at day 1 pre-dose. For change from baseline, geometric mean and its CI are calculated for the value (post) to baseline ratio.

[1] = tested on: patients with stable coronary artery disease; test: Aortic MRI measurements of arterial stiffness (strain, distensibility, peak flow velocity); conditions: for Ascending aorta distensibility / Ascending aorta strain / Descending aorta distensibility / Descending aorta strain / Peak flow velocity: mean ± SD
Experimental: Full left ventricular short-axis stack of cine images was acquired during the interval between stress and rest first-pass perfusion acquisitions. Following administration of the top-up contrast dose (Gadovist 0.05 mmol/kg), aortic cine and phase-velocity encoding sequences were acquired at the level of the pulmonary artery bifurcation. LGE imaging was performed with a segmented phase-sensitive inversion recovery sequence.
CMR image collection, blinding, and handling were managed by an independent imaging contract-research organization (CRO; VirtualScopics, Inc., Rochester, NY, USA). The CMR quantitative analyses were performed by blinded academic readers with >3 years of CMR experience (D.C., A.R., and C.B.). Cine images for ventricular volumes and mass and myocardial perfusion images were manually contoured (QMass, Medis, Leiden, Netherlands). Myocardial blood flow (MBF) was derived from stress and rest perfusion images using a Fermi deconvolution method,[25] implemented in MATLAB.[26] Global MPR was calculated from the ratio of global MBF evaluated at stress and at rest (MPR = stress MBF/rest MBF). Global MBF was calculated by averaging the MBF (mL/g/min) for basal, mid, and apical short-axis left ventricular slices. Ascending and descending aortic strain and distensibility were derived from manually contoured end-diastolic and end-systolic aortic cine images. Aortic strain (AS, unit free fraction) = [maximum aortic lumen area − minimum aortic lumen area]/minimum aortic lumen area. Aortic distensibility (AD, mmHg^−^1) = aortic strain/pulse pressure. Ascending aortic peak flow velocity (m/s) was derived from manually contoured phase-velocity encoding sequence images (QFlow, Medis, Leiden, Netherlands). The presence or absence of myocardial scar was qualitatively assessed on the LGE images.
Model: Change from baseline was analysed using ANCOVA model including treatment as fixed effect and baseline as continuous covariate.

[2] = Serum serelaxin pharmacokinetics (ELISA, non-compartmental)
Experimental: Blood samples (approximately 2 mL) for pharmacokinetic (PK) evaluation were collected at 0 (pre-dose), 24, 48, 50, and 54 h, and Day 30. Serum serelaxin concentration was determined by an enzyme-linked immunosorbent assay, developed and validated based upon a commercially available kit (Quantikine ELISA kit, R&D systems, MN, USA).[29] The PK parameters were calculated using non-compartmental methods that included steady-state concentration (Css) and systemic clearance (CL). Css was estimated using the serum concentration determined at 48 h, while CL was estimated using the rate of infusion and Css for each patient.

hsTnT = test: Plasma biomarker high-sensitivity troponin T; parameters: hs Troponin-T, geo-mean (95% CI): unit not given here
Experimental: as §1, §2, §3

[3] = tested on: patients with stable coronary artery disease; test: Adverse events and serious adverse events
Experimental: All adverse events (AEs) were recorded along with investigator-reported seriousness, intensity, and relationship to study drug.

[4] = baseline to day 3, ANCOVA, n=23

Serelaxin
NT-proBNP change from baseline, geometric mean ratio to baseline (95% CI) (NT-proBNP; 24 h, n=27): 0.89 (0.77, 1.02)
NT-proBNP change from baseline, geometric mean ratio to baseline (95% CI) (NT-proBNP; 48 h, n=28): 1.03 (0.79, 1.34)
NT-proBNP change from baseline, geometric mean ratio to baseline (95% CI) (NT-proBNP; 54 h, n=27): 1.36 (1.06, 1.75)
NT-proBNP change from baseline, geometric mean ratio to baseline (95% CI) (NT-proBNP; Day 30, n=29): 1.02 (0.80, 1.29)
NT-proBNP change from baseline, geometric mean ratio to baseline (95% CI) (NT-proBNP; Day 180, n=29): 1.17 (0.86, 1.58)
NT-proBNP, geo-mean (95% CI) (NT-proBNP; 0 h (pre-dose baseline), n=29): 87.0 (60.2, 125.8) pg/mL
NT-proBNP, geo-mean (95% CI) (NT-proBNP; 24 h, n=27): 74.7 (51.9, 107.5) pg/mL
NT-proBNP, geo-mean (95% CI) (NT-proBNP; 48 h, n=28): 86.8 (57.7, 130.5) pg/mL
NT-proBNP, geo-mean (95% CI) (NT-proBNP; 54 h, n=27): 117.1 (79.9, 171.7) pg/mL
NT-proBNP, geo-mean (95% CI) (NT-proBNP; Day 30, n=29): 88.4 (60.3, 129.7) pg/mL
NT-proBNP, geo-mean (95% CI) (NT-proBNP; Day 180, n=29): 101.6 (69.9, 147.8) pg/mL
Ascending aorta distensibility ([1]; 0 h (pre-dose baseline), n=24): 0.002 ± 0.002 (24) mm/Hg
Ascending aorta strain ([1]; 0 h (pre-dose baseline), n=24): 0.12 ± 0.06 (24)
Descending aorta distensibility ([1]; 0 h (pre-dose baseline), n=24): 0.002 ± 0.001 (24) mm/Hg
Descending aorta strain ([1]; 0 h (pre-dose baseline), n=24): 0.16 ± 0.06 (24)
Peak flow velocity ([1]; 0 h (pre-dose baseline), n=24): 128.00 ± 66.69 (24) cm/sec
Ascending aorta distensibility ([1]; 47 h post-dose, n=23): 0.002 ± 0.001 (23) mm/Hg
Ascending aorta strain ([1]; 47 h post-dose, n=23): 0.12 ± 0.06 (23)
Descending aorta distensibility ([1]; 47 h post-dose, n=23): 0.002 ± 0.001 (23) mm/Hg
Descending aorta strain ([1]; 47 h post-dose, n=23): 0.17 ± 0.05 (23)
Peak flow velocity ([1]; 47 h post-dose, n=23): 127.98 ± 60.76 (23) cm/sec
CMR-derived parameters of aortic stiffness, change from baseline to 47 h compared with placebo ([1]; ascending/descending aorta strain and distensibility, ascending aortic peak flow velocity, P > 0.05 for all): no significant change
Ascending aorta distensibility, adjusted mean difference serelaxin versus placebo ([1]; baseline to day 3, ANCOVA): -0.0001 mm/Hg
Ascending aorta strain, adjusted mean difference serelaxin versus placebo ([1]; baseline to day 3, ANCOVA): 0.01
Descending aorta distensibility, adjusted mean difference serelaxin versus placebo ([1]; baseline to day 3, ANCOVA): -0.0001 mm/Hg
Descending aorta strain, adjusted mean difference serelaxin versus placebo ([1]; baseline to day 3, ANCOVA): 0.01
Peak flow velocity, adjusted mean difference serelaxin versus placebo ([1]; baseline to day 3, ANCOVA): 13.71 cm/sec
Ascending aorta distensibility, change from baseline (adjusted mean) [1, 4]: -0.0001 mm/Hg
Ascending aorta strain, change from baseline (adjusted mean) [1, 4]: 0.01
Descending aorta distensibility, change from baseline (adjusted mean) [1, 4]: 0.0001 mm/Hg
Descending aorta strain, change from baseline (adjusted mean) [1, 4]: 0.011
Peak flow velocity, change from baseline (adjusted mean) [1, 4]: 10.12 cm/sec
Systemic clearance (CL), geometric mean ([2]; estimated from rate of infusion and Css, 48 h IV infusion 30 µg/kg/day): 1.38 mL/min/kg
Steady-state serum concentration (Css), geometric mean ([2]; serum concentration at 48 h of 48 h IV infusion 30 µg/kg/day, ELISA, non-compartmental): 15.1 ng/mL
hs Troponin-T change from baseline, geometric mean ratio to baseline (95% CI) (hsTnT; 24 h, n=27): 0.90 (0.80, 1.01)
hs Troponin-T change from baseline, geometric mean ratio to baseline (95% CI) (hsTnT; 48 h, n=28): 0.87 (0.79, 0.95)
hs Troponin-T change from baseline, geometric mean ratio to baseline (95% CI) (hsTnT; 54 h, n=27): 1.02 (0.85, 1.24)
hs Troponin-T change from baseline, geometric mean ratio to baseline (95% CI) (hsTnT; Day 30, n=29): 0.89 (0.78, 1.02)
hs Troponin-T change from baseline, geometric mean ratio to baseline (95% CI) (hsTnT; Day 180, n=29): 1.09 (0.91, 1.31)
hs Troponin-T, geo-mean (95% CI) (hsTnT; plasma, 0 h (pre-dose baseline), n=29): 0.0076 (0.0057, 0.0102)
hs Troponin-T, geo-mean (95% CI) (hsTnT; plasma, 24 h, n=27): 0.0064 (0.0049, 0.0084)
hs Troponin-T, geo-mean (95% CI) (hsTnT; plasma, 48 h, n=28): 0.0066 (0.0049, 0.0089)
hs Troponin-T, geo-mean (95% CI) (hsTnT; plasma, 54 h, n=27): 0.0079 (0.0057, 0.0110)
hs Troponin-T, geo-mean (95% CI) (hsTnT; plasma, Day 30, n=29): 0.0068 (0.0053, 0.0088)
hs Troponin-T, geo-mean (95% CI) (hsTnT; plasma, Day 180, n=29): 0.0083 (0.0066, 0.0105)
hsTnT geometric mean at baseline (hsTnT; plasma, pre-dose baseline, serelaxin group): 7.6 ng/L
Patients discontinuing the study due to hypotensive events ([3]; in vivo): No patient
AEs considered causally related to serelaxin ([3]; investigator-reported relationship): None
Angina pectoris (AE by preferred term) ([3]; safety set n=30): 1 (3) n (%)
Angina unstable (AE by preferred term) ([3]; safety set n=30): 1 (3) n (%)
Blood creatinine increased (AE by preferred term) ([3]; safety set n=30): 1 (3) n (%)
Dizziness (AE by preferred term) ([3]; safety set n=30): 2 (7) n (%)
Dyspnoea (AE by preferred term) ([3]; safety set n=30): 2 (7) n (%)
Haematocrit decreased (AE by preferred term) ([3]; safety set n=30): 1 (3) n (%)
Haemoglobin decreased (AE by preferred term) ([3]; safety set n=30): 2 (7) n (%)
Headache (AE by preferred term) ([3]; safety set n=30): 2 (7) n (%)
Musculoskeletal pain (AE by preferred term) ([3]; safety set n=30): 2 (7) n (%)
Presyncope (AE by preferred term) ([3]; safety set n=30): 0 (0) n (%)
Subjects with at least one AE ([3]; safety set n=30, 48 h IV infusion 30 µg/kg/day, follow-up to Day 180): 17 (57) n (%)
Deaths ([3]; study period to Day 180): No deaths
